Earlier results in US20230042670A1, “Hypoparathyroidism Treatment” (Ascendis Pharma Bone Diseases A/S, priority 2020, published 2023).

Assays:
[1] = tested on: patients with hypoparathyroidism
[2] = in vivo

PTH(1-84): short acting PTH molecule, approved drug for hypoparathyroidism; PTH 1-84, SEQ ID NO: 1
clinical episodes of hypercalcemia ([1]; on treatment versus placebo, 24 weeks): numerical increase
clinical episodes of hypocalcemia ([1]; versus placebo, 24 weeks): no significant difference
urinary calcium excretion ([1]; versus placebo, 24 weeks): no significant difference
patients achieving the primary endpoint (50% or greater reduction in daily oral calcium and active vitamin D while maintaining serum calcium) ([1]; week 24, 50 μg per day titrated up to 100 μg): 53%
half-life [2]: ~3 h
